Reference: patent US20060058231A1 (Xencor, published 2006)
Where a chain is given by its changes, count along the chain named.

B1: BMP-7 variant F93T (ligand)
chain: STGGKQRSQNRSKTPKNQEALRMASVAENSSSDQRQACKKHELYVSFRDLGWQDWIIAPEGYAAYYCEGECAFPLNSYMNATNHAIVQTLVHTINPETVPKPCCAPTQLNAISVLYFDDSSNVILKKYRNMVVRACGCH
notes: In conditioned media; numbering on mature BMP-7
B2: BMP-7 variant F117K (ligand)
chain: B1 chain with T93F, F117K
notes: as for B1
B3: BMP-7 variant F117R (ligand)
chain: B1 chain with T93F, F117R
notes: as for B1
B4: BMP-7 variant F117Y (ligand)
chain: B1 chain with T93F, F117Y
notes: as for B1
B5: BMP-7 variant I57L (ligand)
chain: B1 chain with I57L, T93F
notes: as for B1
B6: BMP-7 variant I86D (ligand)
chain: B1 chain with I86D, T93F
notes: as for B1
B7: BMP-7 variant I86E (ligand)
chain: B1 chain with I86E, T93F
notes: as for B1
B8: BMP-7 variant I86K (ligand)
chain: B1 chain with I86K, T93F
notes: as for B1
B9: BMP-7 variant I86Q (ligand)
chain: B1 chain with I86Q, T93F
notes: as for B1
B10: BMP-7 variant I94Q (ligand)
chain: B1 chain with T93F, I94Q
notes: as for B1
B11: BMP-7 variant K39A (ligand)
chain: B1 chain with K39A, T93F
notes: as for B1
B12: BMP-7 variant K39N (ligand)
chain: B1 chain with K39N, T93F
notes: as for B1
B13: BMP-7 variant K39S (ligand)
chain: B1 chain with K39S, T93F
notes: as for B1
B14: BMP-7 variant K126E (ligand)
chain: B1 chain with T93F, K126E
notes: as for B1
B15: BMP-7 variant K126Q (ligand)
chain: B1 chain with T93F, K126Q
notes: as for B1
B16: BMP-7 variant L21D (ligand)
chain: B1 chain with L21D, T93F
notes: as for B1
B17: BMP-7 variant L21G (ligand)
chain: B1 chain with L21G, T93F
notes: as for B1
B18: BMP-7 variant L21N (ligand)
chain: B1 chain with L21N, T93F
notes: as for B1
B19: BMP-7 variant L21R (ligand)
chain: B1 chain with L21R, T93F
notes: as for B1
B20: BMP-7 variant L90E (ligand)
chain: B1 chain with L90E, T93F
notes: as for B1
B21: BMP-7 variant L90G (ligand)
chain: B1 chain with L90G, T93F
notes: as for B1
B22: BMP-7 variant L90H (ligand)
chain: B1 chain with L90H, T93F
notes: as for B1
B23: BMP-7 variant L90P (ligand)
chain: B1 chain with L90P, T93F
notes: as for B1
B24: BMP-7 variant L90T (ligand)
chain: B1 chain with L90T, T93F
notes: as for B1

These binders were tested against T1, ActRIIa receptor-Fc fusion (UniProt P27037 20-134, limits assumed) (assay: ELISA-like plate assay, captured BMP-7 from conditioned media, receptor-Fc detection).
T1 construct: BMP receptor-Fc fusion used at 5 ug/mL
T1 sequence (P27037 20-134 limits assumed): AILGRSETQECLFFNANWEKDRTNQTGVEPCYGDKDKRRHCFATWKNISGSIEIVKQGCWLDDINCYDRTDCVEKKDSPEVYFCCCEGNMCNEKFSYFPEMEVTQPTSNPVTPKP

In order of falling “ActRIIa binding (relative to wild type = 1.0)” value:
1. B17  1.5 relative to wild type
2. B10  1.1 relative to wild type
3. B6  1.09 relative to wild type
4. B12  1.08 relative to wild type
5. B11  1.06 relative to wild type
6. B13  1.04 relative to wild type
7. B4  1.03 relative to wild type
8. B18  1.03 relative to wild type
9. B7  1 relative to wild type
10. B8  0.97 relative to wild type
11. B9  0.96 relative to wild type
12. B16  0.94 relative to wild type
13. B5  0.9 relative to wild type
14. B21  0.87 relative to wild type
15. B19  0.84 relative to wild type
16. B15  0.81 relative to wild type
17. B1  0.79 relative to wild type
18. B23  0.75 relative to wild type
19. B24  0.66 relative to wild type
20. B22  0.47 relative to wild type
21. B3  0.35 relative to wild type
22. B2  0.34 relative to wild type
23. B14  0.26 relative to wild type
24. B20  0.24 relative to wild type

These binders were tested against T2, BMPRIb receptor-Fc fusion (UniProt O00238 14-126) in the same assay as above.
T2 construct: BMP receptor-Fc fusion used at 5 ug/mL; also called ALK-6
T2 sequence (looked up): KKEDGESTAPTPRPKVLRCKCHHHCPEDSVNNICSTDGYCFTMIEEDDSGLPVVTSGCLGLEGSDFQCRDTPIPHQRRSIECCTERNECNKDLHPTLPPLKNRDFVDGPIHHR

In order of falling “BMPRIb binding (relative to wild type = 1.0)” value:
1. B17  3.65 relative to wild type
2. B11  2.86 relative to wild type
3. B18  2.81 relative to wild type
4. B13  2.23 relative to wild type
5. B12  1.63 relative to wild type
6. B16  1.52 relative to wild type
7. B6  1.18 relative to wild type
8. B5  1.17 relative to wild type
9. B19  1.01 relative to wild type
10. B1  0.88 relative to wild type
11. B9  0.82 relative to wild type
12. B10  0.74 relative to wild type
13. B4  0.73 relative to wild type
14. B3  0.71 relative to wild type
15. B7  0.69 relative to wild type
16. B8  0.69 relative to wild type
17. B21  0.65 relative to wild type
18. B24  0.64 relative to wild type
19. B2  0.62 relative to wild type
20. B15  0.57 relative to wild type
21. B22  0.55 relative to wild type
22. B23  0.52 relative to wild type
23. B20  0.27 relative to wild type
24. B14  0.22 relative to wild type

The binders below were run against T3, BMPRII receptor-Fc fusion (UniProt Q13873 27-151, limits assumed) in the same assay as above.
T3 construct: BMP receptor-Fc fusion used at 5 ug/mL
T3 sequence (looked up): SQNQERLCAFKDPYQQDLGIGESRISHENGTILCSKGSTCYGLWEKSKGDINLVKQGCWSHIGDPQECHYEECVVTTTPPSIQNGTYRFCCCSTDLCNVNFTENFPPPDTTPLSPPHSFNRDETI

In order of falling “BMPRII binding (relative to wild type = 1.0)” value:
1. B17  2.3 relative to wild type
2. B18  1.73 relative to wild type
3. B11  1.51 relative to wild type
4. B13  1.37 relative to wild type
5. B10  1.32 relative to wild type
6. B6  1.31 relative to wild type
7. B7  1.13 relative to wild type
8. B9  1.07 relative to wild type
9. B8  1.02 relative to wild type
10. B12  0.99 relative to wild type
11. B4  0.96 relative to wild type
12. B16  0.94 relative to wild type
13. B1  0.81 relative to wild type
14. B3  0.72 relative to wild type
15. B19  0.66 relative to wild type
16. B5  0.4 relative to wild type
17. B24  0.29 relative to wild type
18. B15  0.28 relative to wild type
19. B21  0.28 relative to wild type
20. B2  0.2 relative to wild type
21. B22  0.2 relative to wild type
22. B20  0.18 relative to wild type
23. B23  0.17 relative to wild type
24. B14  0 relative to wild type

These binders were tested against T4, BMPRIa receptor-Fc fusion (UniProt P36894 24-152, limits assumed) in the same assay as above.
T4 construct: also called ALK-3
T4 sequence (P36894 24-152 limits assumed): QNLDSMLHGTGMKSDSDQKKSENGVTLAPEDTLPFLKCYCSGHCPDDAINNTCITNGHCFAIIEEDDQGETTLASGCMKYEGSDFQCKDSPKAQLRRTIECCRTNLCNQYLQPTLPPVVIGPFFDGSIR

In order of rising “BMPRIa binding (relative to wild type = 1.0)” value:
1. B20  0.2 relative to wild type
2. B14  0.23 relative to wild type
3. B22  0.36 relative to wild type
4. B2  0.43 relative to wild type
5. B15  0.46 relative to wild type
6. B23  0.46 relative to wild type
7. B3  0.47 relative to wild type
8. B24  0.48 relative to wild type
9. B21  0.55 relative to wild type
10. B7  0.66 relative to wild type
11. B9  0.66 relative to wild type
12. B10  0.74 relative to wild type
13. B1  0.77 relative to wild type
14. B8  0.81 relative to wild type
15. B19  0.83 relative to wild type
16. B5  0.92 relative to wild type
17. B16  1.01 relative to wild type
18. B6  1.03 relative to wild type
19. B4  1.07 relative to wild type
20. B18  1.57 relative to wild type
21. B12  1.98 relative to wild type
22. B17  2.53 relative to wild type
23. B13  2.77 relative to wild type
24. B11  3.48 relative to wild type
